{
  "source": "patent US20260035452A1",
  "about": "(THE UNIVERSITY OF BIRMINGHAM, priority 2022, published 2026)",
  "key": {"[1]": {"test_system": "patients", "settings": "patients with IBD; cited from earlier work"}, "[2]": {"experiment": "Haematological investigations", "format": "in vivo", "settings": "mice, 100 μg/mouse", "protocol": "To assess the neutralising activity of Ab-IPL-IL-17™, CD-1 mice were injected i.p. with 100 μg/mouse of Ab-IPL-IL-17™, MAB421 or secukinumab as positive controls. After 30 min, an i.p. injection of 10 μg/mouse of IL-17A, IL-17F or IL-17A/F heterodimer was administered. After 2 h blood was collected by intracardiac puncture and serum levels of (A) IL-17A, (B) IL-17F or (C) IL-17A/F heterodimer were quantified by Elisa. (C-F) For the evaluation of immunogenic effects CD-1 mice were injected i.p. with 100 μg of IgG1 isotype antibody (vehicle) or IL-17 neutralising antibodies (bimekizumab, secukinumab, MAB421 or Ab-IPL-IL-17™). In the selected time-point (2 h, 24 h, 72 h, 7 days, 14 days and 21 days) total IgG, IgG1, lymphocytes and platelets levels were determined by Elisa and haematological blood count test, respectively. Data are presented as mean±S.D. for n=5 mice per group. Statistical analysis was conducted by one or two-way ANOVA followed by Bonferroni's for multiple comparisons. *P≤0.05, **P≤0.01, ***P≤0.001 vs IL-17 group; ^#P≤0.05, ^##P≤0.01, ^###P≤0.001, ^####P≤0.0001 vs vehicle group.\n(§1) Standard laboratory procedures were used for blood sampling and measurements (95). Haematological investigations, for all experimental conditions, including blood count test, leukocyte, and sidereal formula were performed on citrated and not-anticoagulated blood samples, respectively. Serological tests were performed by CELL-DYN Sapphire purchased from Abbott S.R.L. (Milan, Italy). All procedures were conducted under strictly aseptic conditions.\nas §1, with “measurements.” for “measurements (95).”"}},
  "note": "Marks after values point to notes of the source that are not given here.",
  "data": [
    {"substance": "Secukinumab: human anti-IL-17A monoclonal antibody", "values": [
      {"measurement": "side effect: intestinal inflammation", "setting": "[1]", "value": "enhanced intestinal inflammation"},
      {"measurement": "GRA (Granulocytes)", "setting": "[2]; 2 h", "value": "0.22 ± 0.16 10^3/μL"},
      {"measurement": "HCT (Hematocrit)", "setting": "[2]; 2 h", "value": "29.56 ± 2.26", "unit": "%"},
      {"measurement": "HGB (Hemoglobin)", "setting": "[2]; 2 h", "value": "9.92 ± 1.78", "unit": "g/dL"},
      {"measurement": "MCH (Mean Corpuscular Hemoglobin)", "setting": "[2]; 2 h", "value": "17.58 ± 1.42", "unit": "pg"},
      {"measurement": "MCV (Mean Cell Volume)", "setting": "[2]; 2 h", "value": "61.86 ± 8.95", "unit": "fL"},
      {"measurement": "MHCH", "setting": "[2]; 2 h", "value": "30.60 ± 4.27", "unit": "g/dL"},
      {"measurement": "MID", "setting": "[2]; 2 h", "value": "0.38 ± 0.31 10^3/μL"},
      {"measurement": "MPV (Mean Platelet Volume)", "setting": "[2]; 2 h", "value": "4.54 ± 0.5771", "unit": "fL"},
      {"measurement": "PCT (Plateletcrit)", "setting": "[2]; 2 h", "value": "0.27 ± 0.08", "unit": "%"},
      {"measurement": "PWD (Platelet Distribution Width)", "setting": "[2]; 2 h", "value": "16.30 ± 2.15", "unit": "%"},
      {"measurement": "RBC (Red Blood Cells)", "setting": "[2]; 2 h", "value": "5.57 ± 1.18 10^6/μL"},
      {"measurement": "RDW (Red blood cells Distribution Width)", "setting": "[2]; 2 h", "value": "18.14 ± 1.87", "unit": "%"},
      {"measurement": "WBC (White Blood Cells)", "setting": "[2]; 2 h", "value": "3.96 ± 1.19 10^3/μL"},
      {"measurement": "GRA (Granulocytes)", "setting": "[2]; 24 h", "value": "0.24 ± 0.11 10^3/μL"},
      {"measurement": "HCT (Hematocrit)", "setting": "[2]; 24 h", "value": "28.86 ± 1.80", "unit": "%"},
      {"measurement": "HGB (Hemoglobin)", "setting": "[2]; 24 h", "value": "8.88 ± 1.65", "unit": "g/dL"},
      {"measurement": "MCH (Mean Corpuscular Hemoglobin)", "setting": "[2]; 24 h", "value": "19.10 ± 1.88", "unit": "pg"},
      {"measurement": "MCV (Mean Cell Volume)", "setting": "[2]; 24 h", "value": "63.60 ± 8.78", "unit": "fL"},
      {"measurement": "MHCH", "setting": "[2]; 24 h", "value": "31.54 ± 4.15", "unit": "g/dL"},
      {"measurement": "MID", "setting": "[2]; 24 h", "value": "0.44 ± 0.25 10^3/μL"},
      {"measurement": "MPV (Mean Platelet Volume)", "setting": "[2]; 24 h", "value": "5.16 ± 0.8764", "unit": "fL"},
      {"measurement": "PCT (Plateletcrit)", "setting": "[2]; 24 h", "value": "0.25 ± 0.09", "unit": "%"},
      {"measurement": "PWD (Platelet Distribution Width)", "setting": "[2]; 24 h", "value": "16.06 ± 2.30", "unit": "%"},
      {"measurement": "RBC (Red Blood Cells)", "setting": "[2]; 24 h", "value": "4.48 ± 1.11 10^6/μL"},
      {"measurement": "RDW (Red blood cells Distribution Width)", "setting": "[2]; 24 h", "value": "18.24 ± 1.12", "unit": "%"},
      {"measurement": "WBC (White Blood Cells)", "setting": "[2]; 24 h", "value": "4.44 ± 1.88 10^3/μL"},
      {"measurement": "GRA (Granulocytes)", "setting": "[2]; 72 h", "value": "0.30 ± 0.16 10^3/μL"},
      {"measurement": "HCT (Hematocrit)", "setting": "[2]; 72 h", "value": "21.30 ± 5.47** %"},
      {"measurement": "HGB (Hemoglobin)", "setting": "[2]; 72 h", "value": "6.92 ± 1.53* g/dL"},
      {"measurement": "MCH (Mean Corpuscular Hemoglobin)", "setting": "[2]; 72 h", "value": "21.78 ± 4.20* pg"},
      {"measurement": "MCV (Mean Cell Volume)", "setting": "[2]; 72 h", "value": "81.12 ± 8.84", "unit": "fL"},
      {"measurement": "MHCH", "setting": "[2]; 72 h", "value": "30.90 ± 6.72", "unit": "g/dL"},
      {"measurement": "MID", "setting": "[2]; 72 h", "value": "0.40 ± 0.25 10^3/μL"},
      {"measurement": "MPV (Mean Platelet Volume)", "setting": "[2]; 72 h", "value": "7.80 ± 1.733**** fL"},
      {"measurement": "PCT (Plateletcrit)", "setting": "[2]; 72 h", "value": "0.16 ± 0.06", "unit": "%"},
      {"measurement": "PWD (Platelet Distribution Width)", "setting": "[2]; 72 h", "value": "18.02 ± 2.61", "unit": "%"},
      {"measurement": "RBC (Red Blood Cells)", "setting": "[2]; 72 h", "value": "3.7 ± 1.05* 10^6/μL"},
      {"measurement": "RDW (Red blood cells Distribution Width)", "setting": "[2]; 72 h", "value": "16.86 ± 3.47", "unit": "%"},
      {"measurement": "WBC (White Blood Cells)", "setting": "[2]; 72 h", "value": "5.10 ± 2.34 10^3/μL"},
      {"measurement": "GRA (Granulocytes)", "setting": "[2]; 7 d", "value": "0.24 ± 0.13 10^3/μL"},
      {"measurement": "HCT (Hematocrit)", "setting": "[2]; 7 d", "value": "22.94 ± 4.68* %"},
      {"measurement": "HGB (Hemoglobin)", "setting": "[2]; 7 d", "value": "7.76 ± 1.31", "unit": "g/dL"},
      {"measurement": "MCH (Mean Corpuscular Hemoglobin)", "setting": "[2]; 7 d", "value": "21.14 ± 4.82", "unit": "pg"},
      {"measurement": "MCV (Mean Cell Volume)", "setting": "[2]; 7 d", "value": "71.98 ± 8.64", "unit": "fL"},
      {"measurement": "MHCH", "setting": "[2]; 7 d", "value": "29.50 ± 5.03", "unit": "g/dL"},
      {"measurement": "MID", "setting": "[2]; 7 d", "value": "0.40 ± 0.16 10^3/μL"},
      {"measurement": "MPV (Mean Platelet Volume)", "setting": "[2]; 7 d", "value": "6.58 ± 1.242* fL"},
      {"measurement": "PCT (Plateletcrit)", "setting": "[2]; 7 d", "value": "0.21 ± 0.05", "unit": "%"},
      {"measurement": "PWD (Platelet Distribution Width)", "setting": "[2]; 7 d", "value": "15.54 ± 2.91", "unit": "%"},
      {"measurement": "RBC (Red Blood Cells)", "setting": "[2]; 7 d", "value": "4.10 ± 0.78 10^6/μL"},
      {"measurement": "RDW (Red blood cells Distribution Width)", "setting": "[2]; 7 d", "value": "18.38 ± 1.90", "unit": "%"},
      {"measurement": "WBC (White Blood Cells)", "setting": "[2]; 7 d", "value": "4.74 ± 1.30 10^3/μL"},
      {"measurement": "GRA (Granulocytes)", "setting": "[2]; 14 d", "value": "0.20 ± 0.10 10^3/μL"},
      {"measurement": "HCT (Hematocrit)", "setting": "[2]; 14 d", "value": "27.88 ± 2.63", "unit": "%"},
      {"measurement": "HGB (Hemoglobin)", "setting": "[2]; 14 d", "value": "9.480 ± 1.36", "unit": "g/dL"},
      {"measurement": "MCH (Mean Corpuscular Hemoglobin)", "setting": "[2]; 14 d", "value": "17.50 ± 1.09", "unit": "pg"},
      {"measurement": "MCV (Mean Cell Volume)", "setting": "[2]; 14 d", "value": "63.46 ± 8.13", "unit": "fL"},
      {"measurement": "MHCH", "setting": "[2]; 14 d", "value": "29.64 ± 4.38", "unit": "g/dL"},
      {"measurement": "MID", "setting": "[2]; 14 d", "value": "0.38 ± 0.13 10^3/μL"},
      {"measurement": "MPV (Mean Platelet Volume)", "setting": "[2]; 14 d", "value": "5.86 ± 0.5128", "unit": "fL"},
      {"measurement": "PCT (Plateletcrit)", "setting": "[2]; 14 d", "value": "0.25 ± 0.05", "unit": "%"},
      {"measurement": "PWD (Platelet Distribution Width)", "setting": "[2]; 14 d", "value": "15.98 ± 2.03", "unit": "%"},
      {"measurement": "RBC (Red Blood Cells)", "setting": "[2]; 14 d", "value": "5.98 ± 1.42 10^6/μL"},
      {"measurement": "RDW (Red blood cells Distribution Width)", "setting": "[2]; 14 d", "value": "18.06 ± 2.06", "unit": "%"},
      {"measurement": "WBC (White Blood Cells)", "setting": "[2]; 14 d", "value": "3.08 ± 0.86 10^3/μL"},
      {"measurement": "GRA (Granulocytes)", "setting": "[2]; 21 d", "value": "0.20 ± 0.10 10^3/μL"},
      {"measurement": "HCT (Hematocrit)", "setting": "[2]; 21 d", "value": "29.04 ± 2.30", "unit": "%"},
      {"measurement": "HGB (Hemoglobin)", "setting": "[2]; 21 d", "value": "10.16 ± 1.52", "unit": "g/dL"},
      {"measurement": "MCH (Mean Corpuscular Hemoglobin)", "setting": "[2]; 21 d", "value": "17.62 ± 1.05", "unit": "pg"},
      {"measurement": "MCV (Mean Cell Volume)", "setting": "[2]; 21 d", "value": "62.56 ± 7.90", "unit": "fL"},
      {"measurement": "MHCH", "setting": "[2]; 21 d", "value": "30.34 ± 4.54", "unit": "g/dL"},
      {"measurement": "MID", "setting": "[2]; 21 d", "value": "0.34 ± 0.15 10^3/μL"},
      {"measurement": "MPV (Mean Platelet Volume)", "setting": "[2]; 21 d", "value": "4.92 ± 0.4207", "unit": "fL"},
      {"measurement": "PCT (Plateletcrit)", "setting": "[2]; 21 d", "value": "0.28 ± 0.04", "unit": "%"},
      {"measurement": "PWD (Platelet Distribution Width)", "setting": "[2]; 21 d", "value": "16.14 ± 1.80", "unit": "%"},
      {"measurement": "RBC (Red Blood Cells)", "setting": "[2]; 21 d", "value": "6.25 ± 1.18 10^6/μL"},
      {"measurement": "RDW (Red blood cells Distribution Width)", "setting": "[2]; 21 d", "value": "18.34 ± 1.33", "unit": "%"},
      {"measurement": "WBC (White Blood Cells)", "setting": "[2]; 21 d", "value": "3.280 ± 1.47 10^3/μL"}
    ]}
  ]
}
